Measured values taken from US20130165379A1 (AMYLIN PHARMACEUTICALS, published 2013).

Biological target: T1, Exendin-4 (Heloderma suspectum (Gila monster); …)
T1 construct: also called synthetic exendin-4
Assay: displacement of radiolabeled GLP-1 from RINm5f plasma membranes

B1: GLP-1 receptor (plasma membrane preparation of rat insulinoma cell line RINm5f) (receptor)
chain: GPRPQGATVSLSETVQKWREYRHQCQRFLTEAPLLATGLFCNRTFDDYACWPDGPPGSFVNVSCPWYLPWASSVLQGHVYRFCTAEGIWLHKDNSSLPWRDLSECEESKQGERNSPEEQLLSLYIIYTVGYALSFSALVIASAILVSFRHLHCTRNYIHLNLFASFILRALSVFIKDAALKWMYSTAAQQHQWDGLLSYQDSLGCRLVFLLMQYCVAANYYWLLVEGVYLYTLLAFSVFSEQRIFKLYLSIGWGVPLLFVIPWGIVKYLYEDEGCWTRNSNMNYWLIIRLPILFAIGVNFLVFIRVICIVIAKLKANLMCKTDIKCRLAKSTLTLIPLLGTHEVIFAFVMDEHARGTLRFVKLFTELSFTSFQGFMVAVLYCFVNNEVQMEFRKSWERWRLERLNIQRDSSMKPLKCPTSSVSSGATVGSSVYAATCQNSCS
notes: whole, on cells; The receptor stood in a plasma membrane preparation of the cells, not on intact cells; also called GLP-1 receptors; RINm5f membranes
B1: binds.
